Measured values published in patent US20030119023, “Nucleic acid binding polypeptides characterized by flexible linkers connected nucleic acid binding modules” (published 2003).

Assays:
2x3F pep11-9 = 2x3F pep11-9 (artificial); assay: in vitro fluorescence ELISA, values in figure only; conditions: label: biotin
Method: (§1) Incubations are performed at room temperature for 40 minutes. Black streptavidin-coated wells are blocked with 4% marvel for 1 hour. Binding reactions are added to the streptavidin-coated wells and incubated for a further 40 minutes at room temperature. Wells are washed 5 times in 100 μl wash buffer (1×PBS (pH 7.0), […] ZnCl₂, 0.01 mg/ml BSA, and 0.5% Tween 20), and finally 50 μl QuantaBlu peroxidase substrate solution (Pierce) is added to detect bound HA-tagged zinc finger peptide. ELISA signals are read in a SPECTRAmax GeminiXS spectrophotometer (Molecular Devices) and analysed using SOFTmax Pro 3.1.2 (Molecular Devices).
(§2) To compare the specificity of the 2x3F pep11-9 and 3x2F pep11-9 peptides, samples from the same translation reaction are assayed against each of the binding sites above. The ELISA signals obtained from each assay are then normalised relative to the maximum signal obtained for that peptide. (In this way the absolute amount of either peptide produced by the in vitro transcription/translation system is insignificant).

3x2F pep11-9 = 3x2F pep11-9 (artificial); assay: in vitro fluorescence ELISA, values in figure only; conditions: label: biotin
3x2F pep11-9 (artificial), sequence (chain, as listed by the source): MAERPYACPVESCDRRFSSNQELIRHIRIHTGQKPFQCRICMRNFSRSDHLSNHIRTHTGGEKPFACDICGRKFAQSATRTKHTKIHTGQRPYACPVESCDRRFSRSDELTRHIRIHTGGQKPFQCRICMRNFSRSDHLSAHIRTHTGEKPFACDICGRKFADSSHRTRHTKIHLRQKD
Method: as §1, §2

2x3F pep11-9 (artificial), sequence (chain, as listed by the source): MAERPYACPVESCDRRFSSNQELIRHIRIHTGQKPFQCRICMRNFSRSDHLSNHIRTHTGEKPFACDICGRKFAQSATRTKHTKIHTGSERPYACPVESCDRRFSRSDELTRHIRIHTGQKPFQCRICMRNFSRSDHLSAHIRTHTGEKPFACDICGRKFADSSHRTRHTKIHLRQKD

B1: 11-9 (dsDNA)
DNA 1: GGCCAGGCGGCAGGGGTT
DNA 2: AACCCCTGCCGCCTGGCC
Q: Does B1 bind (2x3F pep11-9)?
A: Result: binds

Q: Does B1 bind (3x2F pep11-9)?
A: Result: binds
